Test results taken from patent US12102653B2, “Ligand regulated protein-protein interaction system” (ST. ANNA KINDERKREBSFORSCHUNG, priority 2017, dated 2024).

B1: RS5: rcSso7d-based lipocalin-fold binding interaction partner binding RBP4 in an A1120-dependent manner (protein)
chain: ATVKFTYQGEEKQVDISKIKRVARYGQGIYFDYGEGGGAWGYGSVSEEDAPKELLQMLEKQ
B2: RF2: FN3-based lipocalin-fold binding interaction partner binding RBP4 in an A1120-dependent manner (protein)
chain: VSDVPRDLEVVAATPTSLLISWYYPNASHAGYYRITYGETGGNSPVQEFTVPFSIRYTIATISGLKPGVDYTITVYAVTDYAYYYRLSEPISINYRTEIDKPSQ
B3: RS3: rcSso7d-based lipocalin-fold binding interaction partner binding RBP4 in an A1120-dependent manner (protein)
chain: ATVKLTYQGEEKQVDISKIKRVARYGQNIYFSYDEGGGAYDYGAVSEKDAPKELLQMLEKQ

Columns and labels:
[1] = target: T1, RBP4 (Homo sapiens, UniProt P02753); conditions: ligand-induced conformational changes of human RBP4; cited from earlier work
[2] = Differential scanning calorimetry (DSC) of RBP4 binding interaction partners; conditions: 80 μM protein, 20-110° C.
Method: The stability of RBP4-binding interaction partners is evaluated by determining the melting temperature (Tm) by differential scanning calorimetry (DSC) using MicroCal VP-DSC capillary cell microcalorimeter (MicroCal). Briefly, 30 μM protein solution is exposed to an increasing temperature ranging from 20-110° C. with a heating rate of 1° C./min. Buffer baseline is subtracted and the resulting data are normalized for protein concentration, followed by fitting with a non-two-state thermal unfolding model.
The thermal stability of RBP4 binding interaction partners was evaluated by determining the melting temperature (Tm) by differential scanning calorimetry (DSC) using the PEAQ Differential Scanning Calorimeter Automated (Malvern Panalytical). Briefly, 80 μM protein solution was exposed to an increasing temperature ranging from 20-110° C. with a heating rate of 1° C./min. Buffer baseline was subtracted and the resulting data were normalized for protein concentration, followed by fitting with a non-two-state thermal unfolding model.

[3] = Analytical size exclusion chromatography (SEC) of RBP4 binding interaction partners; assay type: physicochemical; conditions: PBS with 200 mM NaCl, 25° C.
Method: For analytical SEC analysis, a total amount of 25 μg rcSso7d or FN3 mutants in running buffer (PBS with 200 mM NaCl) is filtered through 0.1 μm Ultrafree-MC filter (Merck Millipore), applied to a Superdex 200 10/300 GL column (GE healthcare) connected to an HPLC prominence LC20 system (Shimadzu) and eluted with a flow rate of 0.75 mL/min at 25° C. In addition, multi-angle light scattering (MALS) is used for determining the molecular mass using WYATT Heleos Dawn8+ plus QELS, a refractive index detector RID-10A (Shimadzu) and a diode array detector SPD-M20A (Shimadzu).
For analytical SEC analysis, a total amount of 25 μg of RBP4 binding interaction partners in running buffer (PBS with 200 mM NaCl) was filtered through a 0.1 μm Ultrafree-MC filter (Merck Millipore), applied to a Superdex 200 10/300 GL column (GE healthcare) connected to an HPLC Prominence LC20 system (Shimadzu) and eluted with a flow rate of 0.75 mL/min at 25° C.

[4] = target: T1, RBP4; assay: Surface plasmon resonance (SPR), RBP4 immobilized on chip; assay type: binding; parameters: Human His-tagged RBP4 (residues 19-201) in pPICZ-alpha-A vector; made in house; host or cells: Pichia pastoris KM71H (secreted); conditions: for dependence of affinity to RBP4 on the lipocalin-fold ligand A1120: SPR, presence (5 μM) and absence of A1120
Method: Surface plasmon resonance (SPR) is used to determine the affinity of the interaction between RBP4 and rcSso7d- or FN3-based lipocalin-fold binding interaction partners and is performed with BiacoreT200 (GE healthcare). The antigen (RBP4) is coated onto a chip and incubated with various concentrations of binder solution in PBS, followed by a dissociation phase in PBS only. All measurements are performed both in the presence and absence of A1120 or other ligands. Finally, kon, koff and Kd values are obtained by global fitting.
Surface plasmon resonance (SPR) was used to determine the affinity of the interaction between RBP4 and rcSso7d- or FN3-based lipocalin-fold binding interaction partners and was performed with BiacoreT200 (GE Healthcare). The antigen (RBP4) was coated onto a CM5 chip (GE Healthcare) and incubated with various concentrations of lipocalin-fold binding interaction partner solution in HBS-EP (GE Healthcare), followed by a dissociation phase in HBS-EP. […] Finally, Kd values (dissociation constants) were obtained by steady-state analysis. […] KD values were calculated by steady-state analysis (right diagram in A and C). One representative experiment out of four independent experiments is shown.

[5] = target: T1, RBP4; assay: Isothermal titration calorimetry (ITC) of binder-RBP4 interaction; assay type: binding; parameters: Human His-tagged RBP4 (residues 19-201) in pPICZ-alpha-A vector; made in house; host or cells: Pichia pastoris KM71H (secreted); conditions: presence (50 μM) and absence of A1120
Method: For the thermodynamic characterization of the interaction between RBP4 and rcSso7d- or FN3-based lipocalin-fold binding interaction partners, isothermal titration calorimetry (ITC) is conducted using an automated MicroCal PEAQ-ITC instrument (Malvern Instruments). The samples are centrifuged (17,000 g, 10 min, 20° C.) and filtered (0.1 μm Ultrafree-MC filter, Merck Millipore). RBP4 protein solution is applied to the sample cell and the respective binders are titrated with varying intervals. Different concentrations both for RBP4 and binders are used and in some experiments, binders are applied to the sample cell and RBP4 is titrated. The experiments are performed both in the presence and absence of the ligand A1120 or other ligands. Data analysis is performed with the MicroCal PEAQ-ITC analysis software.
For the thermodynamic characterization of the interaction between RBP4 and rcSso7d- or FN3-based lipocalin-fold binding interaction partners (in this case RBP4 binding interaction partners), isothermal titration calorimetry (ITC) was conducted using the PEAQ Isothermal Titration Calorimeter Automated (Malvern Panalytical). The samples were centrifuged (17000 g, 10 min, 20° C.) and dialysed against the same buffer (PBS). RBP4 protein solution was applied to the sample cell and the respective RBP4 binding interaction partners were titrated with varying intervals. Different concentrations both for RBP4 and RBP4 binding interaction partners were used. […] Data analysis was performed with the MicroCal PEAQ-ITC analysis software and the resulting data were fitted to a one-set-of-sites binding model. […] The signature plots show the thermodynamic parameters of the interaction between RBP4 and RS3. One representative experiment out of four independent experiments is shown. […] The integrated data were fitted to one-set-of-sites binding model to calculate the KD values in FIG. 18. Signature plots show the thermodynamic parameters of the interaction. One representative experiment out of four independent experiments is shown.

Molecule | effect of ligand on the RBP4-TTR interaction [1] | thermal stability (DSC analysis) [2] | folding and oligomeric state (SEC analysis) [3] | dependence of affinity to RBP4 on the lipocalin-fold ligand A1120 [4] | dependence of affinity to RBP4 on the lipocalin-fold ligand A1120 [5] | SPR binding signal to RBP4 ([4]; absence of A1120, same RS3 concentrations as used with 5 μM A1120)
CC(=O)OC/C=C(C)/C=C/C=C(C)/C=C/C1=C(C)CCCC1(C)C [retinyl acetate] | dissociation from TTR |  |  |  |  | 
C/C=C(C)/C=C/C=C(C)/C=C/C1=C(C)CCCC1(C)C [axerophthene] | dissociation from TTR |  |  |  |  | 
CC1=C(/C=C/C(C)=C/C=C/C(C)=C/C(=O)Nc2ccc(O)cc2)C(C)(C)CCC1 [Fenretinide, 15-[(4-hydroxyphenyl)amino]retinal] | dissociation from TTR |  |  |  |  | 
CC1=C(/C=C/C(C)=C/C=C/C(C)=C/C(=O)O)C(C)(C)CCC1 [all-trans retinoic acid] | dissociation from TTR |  |  |  |  | 
CCNC(=O)/C=C(C)/C=C/C=C(C)/C=C/C1=C(C)CCCC1(C)C [N-Ethylretinamide] | dissociation from TTR |  |  |  |  | 
B1 |  | stable proteins | well folded, monomeric proteins | strongly depend on the presence of the lipocalin-fold ligand | strongly depend on the presence of the lipocalin-fold ligand | 
B2 |  |  | well folded, monomeric proteins | strongly depend on the presence of the lipocalin-fold ligand | strongly depend on the presence of the lipocalin-fold ligand | 
B3 |  | stable proteins | well folded, monomeric proteins | strongly depend on the presence of the lipocalin-fold ligand | strongly depend on the presence of the lipocalin-fold ligand | almost no signal
